The source of these data is article doi:10.1101/591495 (bioRxiv, 2019).

The data set concerns the molecule itself. Nature of the data set: atomic force microscopy.

B1: B. stearothermophilus tryptophanyl-tRNA synthetase (TrpRS) (enzyme, UniProt P00953 1-328, looked up)
chain: MKTIFSGIQPSGVITIGNYIGALRQFVELQHEYNCYFCIVDQHAITVWQDPHELRQNIRRLAAKYLAVGIDPTQATLFIQSEVPAHAQAAWMLQCIVYIGELERMTQFKEKSAGKEAVSAGLLTYPPLMAADILLYNTDIVPVGEDQKQHIELTRDLAERFNKRYGELFTIPEARIPKVGARIMSLVDPTKKMSKSDPNPKAYITLLDDAKTIEKKIKSAVTDSEGTIRYDKEAKPGISNLLNIYSTLSGQSIEELERQYEGKGYGVFKADLAQVVIETLRPIQERYHHWMESEELDRVLDEGAEKANRVASEMVRKMEQAMGLGRRR
For B1, the Kd (commonly the concentration at which binding is half-saturated) worked out at 5 nM. That is a single-digit nanomolar value.
